System: peptide library, one residue held at a place counted from the S/T acceptor
Experiment: relative phosphorylation of the sub-library (ratio to the mean residue at this position); higher = residue favoured
Summary of the method: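 Relative sub-library phosphorylation is a ratio to the mean residue at the same position. Purified recombinant kinases were incubated under kinase-specific conditions with biotinylated degenerate peptide sub-libraries, each fixing one residue at one position around a central Ser/Thr, using 50 μM peptide and 50 μM ATP spiked with γ-32P-ATP for 90 min. Spots captured on streptavidin membranes were phosphorimaged and quantified by densitometry.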

NEK2, construct: Full length, human, sequence (P51955 whole entry, looked up): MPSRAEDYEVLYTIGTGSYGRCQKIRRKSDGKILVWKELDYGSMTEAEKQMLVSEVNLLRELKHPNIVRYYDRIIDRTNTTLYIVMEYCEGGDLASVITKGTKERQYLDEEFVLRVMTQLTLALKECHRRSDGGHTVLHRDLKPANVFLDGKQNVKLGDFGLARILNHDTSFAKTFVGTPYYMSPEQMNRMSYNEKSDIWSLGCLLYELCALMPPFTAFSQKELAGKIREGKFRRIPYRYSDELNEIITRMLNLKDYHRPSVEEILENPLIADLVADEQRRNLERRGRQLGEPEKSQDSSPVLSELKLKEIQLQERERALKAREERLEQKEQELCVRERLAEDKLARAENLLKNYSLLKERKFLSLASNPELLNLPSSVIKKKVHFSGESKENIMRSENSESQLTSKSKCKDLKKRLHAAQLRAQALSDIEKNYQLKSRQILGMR
CLK4, construct: aa128-481, human, sequence (Q9HAZ1 128-481, looked up): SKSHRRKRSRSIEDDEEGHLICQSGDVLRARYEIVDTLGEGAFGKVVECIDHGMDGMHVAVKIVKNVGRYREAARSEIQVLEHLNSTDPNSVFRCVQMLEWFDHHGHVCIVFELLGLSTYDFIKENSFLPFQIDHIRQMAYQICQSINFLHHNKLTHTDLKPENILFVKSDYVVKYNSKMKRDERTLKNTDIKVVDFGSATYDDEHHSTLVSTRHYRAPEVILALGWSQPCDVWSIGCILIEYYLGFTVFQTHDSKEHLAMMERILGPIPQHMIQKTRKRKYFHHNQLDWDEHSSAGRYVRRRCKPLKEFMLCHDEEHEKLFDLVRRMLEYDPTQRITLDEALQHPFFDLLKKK
STK33, construct: Full length, human, sequence (Q9BYT3 whole entry, looked up): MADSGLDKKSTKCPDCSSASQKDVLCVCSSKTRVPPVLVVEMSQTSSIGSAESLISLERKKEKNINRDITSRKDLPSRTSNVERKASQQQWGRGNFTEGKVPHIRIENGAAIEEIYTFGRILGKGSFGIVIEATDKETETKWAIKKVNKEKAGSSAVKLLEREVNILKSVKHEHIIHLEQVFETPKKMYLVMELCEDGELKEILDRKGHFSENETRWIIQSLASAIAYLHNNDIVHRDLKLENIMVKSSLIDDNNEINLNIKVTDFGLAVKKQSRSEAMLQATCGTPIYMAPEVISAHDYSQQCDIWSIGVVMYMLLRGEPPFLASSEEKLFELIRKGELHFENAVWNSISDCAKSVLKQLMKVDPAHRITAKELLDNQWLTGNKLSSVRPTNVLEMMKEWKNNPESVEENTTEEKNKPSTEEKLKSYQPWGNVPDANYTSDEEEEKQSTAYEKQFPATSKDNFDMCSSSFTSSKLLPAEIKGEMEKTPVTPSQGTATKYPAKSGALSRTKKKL

PRKCH, construct: Full length, human (from UniProt P24723)
relative phosphorylation
Conditions	at +1	at +2	at +3	at +4	at -1	at -2	at -3	at -4	at -5
A fixed	0.536	0.49	0.738	0.933	1.07	0.893	0.78	1.1	1.19
D fixed	0.187	0.163	0.449	0.528	0.548	0.496	0.423	0.718	0.638
E fixed	0.282	0.15	0.547	0.496	0.55	0.467	0.469	0.799	0.721
F fixed	1.78	0.68	0.858	0.658	0.632	0.721	0.813	0.773	1.23
G fixed	0.374	0.299	1.06	0.926	1.42	1.13	0.776	1.12	0.955
H fixed	0.661	1.39	1.28	1.45	0.981	1.24	1.39	1.15	1.12
I fixed	1.47	0.622	0.754	0.632	0.397	0.405	0.444	0.614	0.818
K fixed	1.86	3.28	2.09	2.44	1.98	1.9	1.88	1.72	1.53
L fixed	1.19	0.561	0.883	0.64	0.733	0.438	0.551	0.66	0.852
M fixed	1.43	0.745	0.785	0.708	0.929	0.592	0.695	0.869	0.722
N fixed	0.548	0.668	0.974	1.04	1.36	1.32	0.995	1.06	0.97
P fixed	0.286	0.212	0.554	1.11	1.11	0.736	0.821	1.05	0.798
Q fixed	1.12	0.583	0.839	0.986	0.999	1.28	0.842	0.927	0.878
R fixed	2.06	4.08	2.24	1.99	2.16	3.2	4.05	1.67	1.75
V fixed	1.31	0.596	0.754	0.715	0.593	0.447	0.466	0.716	0.847
W fixed	0.831	0.669	1.05	1	0.61	1.02	0.786	1.18	1.12
Y fixed	1.07	1.81	1.16	0.753	0.94	0.696	0.824	0.878	0.857
pThr fixed	0.833	0.36	0.641	0.773	0.411	0.691	0.644	0.881	0.699
pTyr fixed	0.574	0.268	0.811	0.593	0.751	0.641	0.847	0.869	1.09

CLK4, construct: aa128-481, human (from UniProt Q9HAZ1)
relative phosphorylation
Conditions	at +1	at +2	at +3	at +4	at -1	at -2	at -3	at -4	at -5
A fixed	0.617	1.09	0.764	0.712	0.792	1.63	0.609	0.923	0.926
D fixed	0.293	0.989	0.691	1.07	0.403	0.553	0.453	0.649	0.735
E fixed	0.565	0.943	0.592	1.1	0.48	1.52	0.374	0.721	0.595
F fixed	0.435	0.928	0.771	0.91	0.705	0.337	0.327	0.858	1.39
G fixed	0.628	1.04	0.925	0.889	0.975	0.943	0.553	1.09	1.02
H fixed	0.7	1.28	1.1	1.06	1.18	0.546	0.709	0.979	1.05
I fixed	1	0.795	0.61	0.869	0.55	0.343	0.332	0.857	0.786
K fixed	0.807	1.36	2.5	1.26	2.09	0.978	2.16	1.72	1.47
L fixed	0.784	0.877	0.731	0.8	0.935	0.461	0.394	0.781	0.891
M fixed	0.727	0.837	0.717	1.02	1.04	0.443	0.429	0.884	0.69
N fixed	0.498	0.804	0.822	0.935	0.865	0.42	0.476	0.807	0.881
P fixed	5.64	1.21	2.04	0.901	1	0.453	0.405	0.806	0.909
Q fixed	0.793	0.929	0.795	1.07	1.12	0.717	0.509	0.839	0.827
R fixed	0.853	1.33	1.7	1.28	2.36	6.56	8.11	2.25	1.82
V fixed	1.59	1.04	0.67	0.772	0.704	0.386	0.331	0.755	0.771
W fixed	0.486	0.754	0.763	1.25	0.895	0.348	0.429	1.1	1.24
Y fixed	0.574	0.792	0.8	1.1	0.89	0.356	0.399	0.973	1
pThr fixed	0.796	1.92	0.773	2.01	0.343	0.467	0.603	0.846	0.81
pTyr fixed	0.516	0.647	1.52	1.16	0.546	0.295	0.356	0.732	0.938

NEK2, construct: Full length, human (from UniProt P51955)
relative phosphorylation
Conditions	at +1	at +2	at +3	at +4	at -1	at -2	at -3	at -4	at -5
A fixed	0.655	1.03	0.897	0.958	1.25	1.5	1.09	1.06	1.3
D fixed	0.189	0.318	0.782	0.806	0.644	0.552	0.307	0.772	0.938
E fixed	0.203	0.195	0.916	0.811	0.81	0.438	0.301	0.73	0.694
F fixed	1.19	0.835	0.878	0.906	0.783	1.2	2.37	1.2	1.3
G fixed	0.656	0.834	1.06	1.12	0.959	1.29	1.23	1.29	1.14
H fixed	1.03	1.43	1.08	1.04	1.03	1.16	1.07	1.11	1
I fixed	1.5	0.624	0.864	0.775	0.561	0.636	0.466	0.818	0.767
K fixed	0.846	1.69	1.18	1.4	1.53	1.42	0.638	1.07	1.19
L fixed	1.79	0.638	1.06	0.949	0.917	0.799	1.89	1.04	0.828
M fixed	2.1	0.873	0.899	0.875	1.4	1.11	1.77	0.964	0.862
N fixed	0.85	0.888	1.02	0.964	1.04	0.989	0.733	0.931	0.884
P fixed	0.151	0.771	1.08	1.14	0.23	0.405	0.965	0.963	1.04
Q fixed	1.26	0.696	0.874	1.06	1.21	0.852	0.661	0.881	0.81
R fixed	1.26	3.71	1.5	1.45	1.98	1.75	0.77	0.902	1.18
V fixed	1.18	0.71	0.875	0.745	0.743	0.65	0.48	0.828	0.934
W fixed	0.983	0.748	0.916	1.14	0.85	1.06	1.11	1.44	1.1
Y fixed	1.17	1.01	1.13	0.874	1.08	1.19	1.15	1.01	1.03
pThr fixed	0.425	0.383	0.557	0.688	0.278	0.449	0.545	0.747	0.658
pTyr fixed	0.547	0.275	0.758	0.62	0.697	0.525	0.752	0.642	0.66

STK33, construct: Full length, human (from UniProt Q9BYT3)
relative phosphorylation
Conditions	at +1	at +2	at +3	at +4	at -1	at -2	at -3	at -4	at -5
A fixed	0.409	0.63	0.576	0.702	0.899	0.84	0.905	1.03	1.17
D fixed	0.151	0.26	0.433	0.754	0.393	0.433	0.344	0.723	0.731
E fixed	0.158	0.243	0.451	0.951	0.572	0.411	0.355	0.681	0.709
F fixed	1.25	1.85	1.22	0.842	0.653	1.95	1.53	0.855	0.849
G fixed	0.327	0.41	0.743	1.03	0.676	0.987	1.08	1.23	1.43
H fixed	0.745	1.82	1.31	1.12	0.933	1.39	1.07	1.19	1.25
I fixed	1.33	0.956	0.804	0.992	0.574	0.549	0.683	0.661	0.6
K fixed	2.18	0.815	2.01	1.41	2.59	0.826	0.921	1.39	1.72
L fixed	0.893	0.654	0.657	0.801	0.812	0.865	1.62	0.77	0.603
M fixed	1.36	0.871	0.756	0.914	1.14	0.99	1.42	0.836	0.653
N fixed	0.578	0.59	0.655	0.917	0.978	1.32	0.724	1.02	1.11
P fixed	0.217	0.394	0.564	1.38	0.306	0.43	0.915	0.924	1.12
Q fixed	1.23	0.53	0.661	0.994	1.33	0.786	0.836	0.823	0.856
R fixed	3.13	1.16	2.98	1.28	2.9	1.34	1.66	1.42	1.5
V fixed	1.29	0.796	0.721	0.835	0.747	0.568	0.555	0.585	0.613
W fixed	0.768	1.8	1.23	1.21	0.557	1.73	1.23	1.98	1.22
Y fixed	0.988	3.23	1.24	0.882	0.943	1.59	1.16	0.886	0.869
pThr fixed	0.683	0.937	1.23	1.3	0.439	0.702	1.14	1.05	1.24
pTyr fixed	0.677	11.7	1.91	1.8	0.918	0.887	1.02	0.779	1.13

Reference: the supplement of paper PMC9876800
